According to US20080248467, “System for pulling out regulatory elements using yeast” (published 2008):

Biological target: Pax3 (GST fusion or 6xHis) (UniProt P24610 P24610:1-479)
Test: EMSA; 25 C
Settings: tags: GST-Pax3 or 6xHis-Pax3, bacterially expressed; label: 32P; overhangs
Experimental: Probes were generated by end-labeling double-stranded oligonucleotides with γ³² P-dATP or PCR labeling with α³²P-dGTP. Probes were incubated with or without 6×-His-Pax3 or GST-PAX3 at 25° C., and the complexes were resolved on a 6% Tris-glycine polyacrylamide gel. The free probes are designated by the bottom bracket, and the shifted Pax3:DNA complex by the asterisk to the right of each gel.
Probes were generated by end labeling double-stranded oligonucleotides with γ³²P-dATP or PCR labeling with α³²P-dGTP. Probes were incubated with or without 6×-His-Pax3 or GST-PAX3 at 25° C., and the complexes were resolved on a 6% Tris-glycine polyacrylamide gel. The location of the free probes is indicated by the bracket at left, and the shifted Pax3:DNA complexes by the asterisks to the right of each gel.

Chain of Pax3 (GST fusion or 6xHis) (P24610 whole entry, the tested form may be a part, one chain of several): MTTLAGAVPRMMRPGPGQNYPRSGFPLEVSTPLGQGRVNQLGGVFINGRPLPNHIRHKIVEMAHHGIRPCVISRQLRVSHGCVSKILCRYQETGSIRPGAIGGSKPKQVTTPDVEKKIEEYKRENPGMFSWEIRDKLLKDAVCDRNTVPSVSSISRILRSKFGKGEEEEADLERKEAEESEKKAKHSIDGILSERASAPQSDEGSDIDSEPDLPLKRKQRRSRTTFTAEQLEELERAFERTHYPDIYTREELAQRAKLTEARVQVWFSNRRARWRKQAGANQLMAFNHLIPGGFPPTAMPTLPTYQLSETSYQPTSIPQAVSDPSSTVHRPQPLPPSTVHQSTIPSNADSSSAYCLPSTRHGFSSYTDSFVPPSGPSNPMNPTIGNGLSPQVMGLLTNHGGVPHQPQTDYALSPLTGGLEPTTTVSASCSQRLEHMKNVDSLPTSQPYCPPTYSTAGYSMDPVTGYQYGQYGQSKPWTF

B1: 2x Pax3 oligo (dsDNA)
DNA 1: CAGTGACGATTAGCACCGTCACGCTTAGATATAGTGACGATTAGCACCGTCACGCTTAGATATA
DNA 2: CGCGTATATCTAAGCGTGACGGTGCTAATCGTCACTATATCTAAGAGTGACGGTGCTAATCGTCACTGAGCT
B1: binds.
